B1: mRNA-splicing (parent)
chain: AGUUGCUGCUGGGAGCUCCAGCACAGUGAAAUGGACAGAAGGGCAGAGCAA

Variants of: B1
Assay: exon inclusion enrichment index; higher = more inclusion; WT1 exon 5 minigene, HEK293
In the case of G5A C6G U7G C9A U32G G33C, the “exon inclusion enrichment index” value is reported as 0.00522. For G5A C6G U7G C9A U32G G33A, the “exon inclusion enrichment index” value was 0.00113. With G5A C6G U7G C9A U32G G33U the “exon inclusion enrichment index” value was 0.000945. For G5A C6U U7A G8U C9A C18G C19A, the “exon inclusion enrichment index” value was 0.0894. In the case of G5A C6U U7A G8U C9A C18G C19U, the “exon inclusion enrichment index” value is reported as 0.00519. In the case of G5A C6U U7A G8U C9A C18G C19G, the “exon inclusion enrichment index” value is reported as 0.0648. With G5A C6G U7G C9A G41U the “exon inclusion enrichment index” value was 0.000489. In the case of G5A C6G U7G C9A U27G, the “exon inclusion enrichment index” value is reported as 0.000925. In the case of G5A C6G U7G C9A U27C, the “exon inclusion enrichment index” value is reported as 0.00674. For G5A C6G U7G C9A U27A, the “exon inclusion enrichment index” value was 0.00261. In the case of G5A C6U U7A G8U C9A C18U C19U, the “exon inclusion enrichment index” value is reported as 0.00085. With G5A C6U U7A G8U C9A C18U C19G the “exon inclusion enrichment index” value was 0.0036. In the case of G5A C6U U7A G8U C9A C18U C19A, the “exon inclusion enrichment index” value is reported as 0.00119. For G5A C6U U7A C9A U10A, the “exon inclusion enrichment index” value was 0.0444. With G5A C6U C9A the “exon inclusion enrichment index” value was 0.306. With G5A C6U U7A G8U C9A A31C U32G the “exon inclusion enrichment index” value was 0.0628. With G5A C6U U7A G8U C9A A31C U32C the “exon inclusion enrichment index” value was 0.363. For G5A C6U U7A G8U C9A A31C U32A, the “exon inclusion enrichment index” value was 0.0278. With G5A C6G U7G C9A G48U the “exon inclusion enrichment index” value was 0.00708. For G5A C6G U7G C9A G48C, the “exon inclusion enrichment index” value was 0.00243. For G5A C6G U7G C9A G48A, the “exon inclusion enrichment index” value was 0.000556. In the case of G5A C6G U7G C9A G43C C44G, the “exon inclusion enrichment index” value is reported as 0.0277. With G5A C6G U7G C9A G43C C44U the “exon inclusion enrichment index” value was 0.000823. For G5A C6G U7G C9A G43C C44A, the “exon inclusion enrichment index” value was 0.0166. In the case of G5A C6U U7A G8U C9A A30C A31G, the “exon inclusion enrichment index” value is reported as 0.168. In the case of G5A C6U U7A G8U C9A A30C A31U, the “exon inclusion enrichment index” value is reported as 0.0899. With G5A C6U U7A G8U C9A A30C A31C the “exon inclusion enrichment index” value was 0.126. In the case of G5A C6U G8U C9A, the “exon inclusion enrichment index” value is reported as 0.038. In the case of G5A C6U G8U C9U, the “exon inclusion enrichment index” value is reported as 0.0357. For G5A C6G U7G C9A U10C G11A, the “exon inclusion enrichment index” value was 0.0011. In the case of G5A C6G U7G C9A U10C G11C, the “exon inclusion enrichment index” value is reported as 0.0142. For G5A C6G U7G C9A U10C G11U, the “exon inclusion enrichment index” value was 0.0108. In the case of G5A C6U U7A G8U C9A A45U G46A, the “exon inclusion enrichment index” value is reported as 0.0424. With G5A C6U U7A G8U C9A A45U G46C the “exon inclusion enrichment index” value was 0.0684. For G5A C6U U7A G8U C9A A45U G46U, the “exon inclusion enrichment index” value was 0.0214. For G5A C6U U7A G8U C9A A31U U32A, the “exon inclusion enrichment index” value was 0.0012. In the case of G5A C6U U7A G8U C9A A31U U32C, the “exon inclusion enrichment index” value is reported as 0.168. In the case of G5A C6U U7A G8U C9A A31U U32G, the “exon inclusion enrichment index” value is reported as 0.0286. In the case of G5A C6U U7A G8U C9A A45U, the “exon inclusion enrichment index” value is reported as 0.132. For G5A C6U U7A G8U C9A A45C, the “exon inclusion enrichment index” value was 0.106. For G5A C6U U7A G8U C9A A45G, the “exon inclusion enrichment index” value was 0.212. In the case of G5A C6U U7A G8U C9A C18A C19A, the “exon inclusion enrichment index” value is reported as 0.00553. For G5A C6U U7A G8U C9A C18A C19U, the “exon inclusion enrichment index” value was 0.00112. With G5A C6U U7A G8U C9A C18A C19G the “exon inclusion enrichment index” value was 0.00128. In the case of G5A C6U U7A G8U C9A A29G A30C, the “exon inclusion enrichment index” value is reported as 0.0104. For G5A C6U U7A G8U C9A A29G A30U, the “exon inclusion enrichment index” value was 0.00704. In the case of G5A C6U U7A G8U C9A A29G A30G, the “exon inclusion enrichment index” value is reported as 0.0286. With G5A C6U U7A the “exon inclusion enrichment index” value was 0.0138. In the case of G5A C6U U7A G8U C9A A40C G41C, the “exon inclusion enrichment index” value is reported as 0.455. With G5A C6U U7A G8U C9A A40C G41U the “exon inclusion enrichment index” value was 0.0189. For G5A C6U U7A G8U C9A A40C G41A, the “exon inclusion enrichment index” value was 0.00954. For G5A C6G U7G C9A G46U, the “exon inclusion enrichment index” value was 0.000617. For G5A C6G U7G C9A G46C, the “exon inclusion enrichment index” value was 0.00111. For G5A C6G U7G C9A G46A, the “exon inclusion enrichment index” value was 0.00583. For G5A C6G U7G U10C, the “exon inclusion enrichment index” value was 0.0118. In the case of G5A C6G U7G U10G, the “exon inclusion enrichment index” value is reported as 0.0189. In the case of G5A C6G U7G U10A, the “exon inclusion enrichment index” value is reported as 0.00101. For G5A C6U U7A G8U C9A C16U U17C, the “exon inclusion enrichment index” value was 0.0363. In the case of G5A C6U U7A G8U C9A C16U U17G, the “exon inclusion enrichment index” value is reported as 0.0217. For G5A C6U U7A G8U C9A C16U U17A, the “exon inclusion enrichment index” value was 0.0252. In the case of G5A C6G U7G G8A, the “exon inclusion enrichment index” value is reported as 0.0142. In the case of G5A C6G U7G G8U, the “exon inclusion enrichment index” value is reported as 0.00501. For G5A C6G U7G G8C, the “exon inclusion enrichment index” value was 0.00742. For G5A C6U U7A G8U C9A A25C G26C, the “exon inclusion enrichment index” value was 0.0828. With G5A C6U U7A G8U C9A A25C G26A the “exon inclusion enrichment index” value was 0.223. In the case of G5A C6U U7A G8U C9A A25C G26U, the “exon inclusion enrichment index” value is reported as 0.133. With G5A C6U U7A G8U C9A A39G A40G the “exon inclusion enrichment index” value was 0.00821. With G5A C6U U7A G8U C9A A39G A40C the “exon inclusion enrichment index” value was 0.102. In the case of G5A C6U U7A G8U C9A A39G A40U, the “exon inclusion enrichment index” value is reported as 0.00682. With G5A C6G U7G C9A U27C G28U the “exon inclusion enrichment index” value was 0.00816. In the case of G5A C6G U7G C9A U27C G28C, the “exon inclusion enrichment index” value is reported as 0.0122. In the case of G5A C6G U7G C9A U27C G28A, the “exon inclusion enrichment index” value is reported as 0.00952. With G5A C6U U7A G8U C9A C16G U17G the “exon inclusion enrichment index” value was 0.00515. For G5A C6U U7A G8U C9A C16G U17A, the “exon inclusion enrichment index” value was 0.0334. With G5A C6U U7A G8U C9A C16G U17C the “exon inclusion enrichment index” value was 0.00521. For G5A C6G U7G C9A G41U G42A, the “exon inclusion enrichment index” value was 0.000614. For G5A C6G U7G C9A G41U G42C, the “exon inclusion enrichment index” value was 0.00698. With G5A C6G U7G C9A G41U G42U the “exon inclusion enrichment index” value was 0.00223. In the case of G5A C6G U7G C9A U32G, the “exon inclusion enrichment index” value is reported as 0.00176. With G5A C6G U7G C9A U32C the “exon inclusion enrichment index” value was 0.00508. For G5A C6G U7G C9A U32A, the “exon inclusion enrichment index” value was 0.000886. In the case of G5A C6G U7G C9A G42U G43C, the “exon inclusion enrichment index” value is reported as 0.0126. For G5A C6G U7G C9A G42U G43A, the “exon inclusion enrichment index” value was 0.00514. For G5A C6G U7G C9A G42U G43U, the “exon inclusion enrichment index” value was 0.00686.

Reference: the RNAGym collection of RNA variant scans (doi:10.1101/gr.219683.116)
